Common to all, as to test: fluorescence polarisation; apparent KD; constant 1 μM TAMRA-labelled p14ARF (45–64) peptide titrated with HUWE1 protein; 25°C, 20 mM HEPES pH 8.0, 150 mM NaCl, 10% glycerol, 1 mM EDTA, 5 mM DTT; three independent experiments
Common to all, as to conditions: both partners purified
A general note: Polarisation of emitted light reports the rotation of a fluorescent probe.

The target in assay [1] is T1, MBP-tagged activation segment of HUWE1 (residues 3843–3902) (human, UniProt Q7Z6Z7 3843-3902).
T1 construct: pETM41: N-terminal TEV protease-cleavable MBP-tag, C-terminal 3C protease-cleavable His6-tag; source: E. coli BL21(DE3), purified (IMAC, gel filtration); not shown: MBP, N-terminal, kept; His6, C-terminal, kept
T1 sequence (looked up): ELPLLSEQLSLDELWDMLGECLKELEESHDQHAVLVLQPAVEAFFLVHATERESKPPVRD

Assay [2] has as its target T2, HUWE1 (3896–4374) (human, UniProt Q7Z6Z7 3896-4374).
T2 construct: source: LOBSTR RIL cells, purified (IMAC, gel filtration)
T2 sequence (looked up): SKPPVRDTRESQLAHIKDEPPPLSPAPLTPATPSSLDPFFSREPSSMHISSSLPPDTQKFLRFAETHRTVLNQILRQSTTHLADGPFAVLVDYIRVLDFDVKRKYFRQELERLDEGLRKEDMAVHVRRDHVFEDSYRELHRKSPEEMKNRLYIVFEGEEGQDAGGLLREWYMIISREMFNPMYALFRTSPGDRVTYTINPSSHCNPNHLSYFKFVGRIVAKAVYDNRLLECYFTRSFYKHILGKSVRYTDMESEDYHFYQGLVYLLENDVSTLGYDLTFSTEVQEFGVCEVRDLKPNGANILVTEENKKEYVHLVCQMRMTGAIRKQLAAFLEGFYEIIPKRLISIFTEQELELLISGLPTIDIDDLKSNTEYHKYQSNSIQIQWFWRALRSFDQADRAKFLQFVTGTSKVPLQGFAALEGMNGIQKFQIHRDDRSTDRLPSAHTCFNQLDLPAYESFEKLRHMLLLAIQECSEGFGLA

Assay [3] concerns the target T3, HUWE1 (3810–4374) (human, UniProt Q7Z6Z7 3810-4374).
T3 construct: source: LOBSTR RIL cells, purified (IMAC, gel filtration)
T3 sequence (looked up): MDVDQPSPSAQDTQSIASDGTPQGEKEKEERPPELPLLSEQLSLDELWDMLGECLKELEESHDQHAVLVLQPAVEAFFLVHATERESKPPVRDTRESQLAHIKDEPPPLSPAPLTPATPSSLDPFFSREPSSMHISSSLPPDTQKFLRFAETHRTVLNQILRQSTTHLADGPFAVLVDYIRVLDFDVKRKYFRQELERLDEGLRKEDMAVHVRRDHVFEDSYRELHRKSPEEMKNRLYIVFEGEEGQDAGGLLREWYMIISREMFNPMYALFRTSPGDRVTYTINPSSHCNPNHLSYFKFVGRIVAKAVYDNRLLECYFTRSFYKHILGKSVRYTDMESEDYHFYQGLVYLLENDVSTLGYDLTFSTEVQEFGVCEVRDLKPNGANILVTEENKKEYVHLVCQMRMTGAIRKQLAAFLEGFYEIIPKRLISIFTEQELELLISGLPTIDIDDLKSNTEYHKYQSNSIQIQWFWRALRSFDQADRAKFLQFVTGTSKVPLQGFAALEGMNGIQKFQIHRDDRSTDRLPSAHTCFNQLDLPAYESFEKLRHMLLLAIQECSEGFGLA

Ends that are not written are not given here.

B1: fluorophor-labeled p14ARF-derived peptide (residues 45–64), TAMRA-labelled (peptide)
peptide: LVLMLLRSQRLGQQPLPRRPK(TAMRA)
notes: p14ARF (alternative reading frame product of CDKN2A), human, residues 45–64; additional lysine residue at the C-terminus that carries the TAMRA label (told in words); also called p14ARF-peptide; p14ARF (45-64); source: synthetic peptide, bought: Elim Biopharm
Take B1: the Kd is 3.6 ± 0.2 µM in assay [1], 340 ± 60 µM in assay [2] and 6 ± 1 µM in assay [3].

Source of the values: paper PMC5308896, “A conformational switch regulates the ubiquitin ligase HUWE1” (eLife, 2017).
